In article PMC7352323, “Regulation of Actin Filament Length by Muscle Isoforms of Tropomyosin and Cofilin” (International Journal of Molecular Sciences, 2020):

Key:
Settings in all cases: both partners purified
[1] = target: T1, F-actin (actin isolated from rabbit pectoral muscle, polymerised) (rabbit, UniProt P68135 1-377); assay: co-sedimentation; 0-10 µM cofilin-2 with 3 µM F-actin alone or initially saturated with 1 µM Tpm1.1 or Tpm3.12, 20 min at room temperature; 100 mM NaCl, 2 mM MgCl2, 1 mM DTT, pH 7.5; apparent Kapp from the Hill equation, K0 and ω from the McGhee and von Hippel linear lattice model
[2] = target: T2, F-actin initially saturated with Tpm1.1 (rabbit | human, UniProt P68135 1-377; P09493 1-284); assay: as above
[3] = target: T3, F-actin initially saturated with Tpm3.12 (rabbit | human, UniProt P68135 1-377; P06753 1-285); assay: as above
[4] = target: T1, F-actin (actin isolated from rabbit …); assay: as above; remark: listed apart in the source
[5] = target: T2, F-actin initially saturated with Tpm1.1; assay: as above; remark: listed apart in the source
[6] = target: T3, F-actin initially saturated with Tpm3.12; assay: as above; remark: listed apart in the source
[7] = target: T1, F-actin (actin isolated from rabbit …); assay: co-sedimentation; dissociation of tropomyosin from the filament by cofilin-2: 3 µM F-actin, 1 µM Tpm1.1 or Tpm3.12, 0-10 µM cofilin-2; tropomyosin/actin densitometric ratio against cofilin-2/actin molar ratio, fit to a modified Hill equation; same gels as for cofilin-2 binding in the presence of tropomyosin

stoichiometry N [1]: ~1 cofilin-2 per actin
stoichiometry N [2]: ~1 cofilin-2 per actin
stoichiometry N [3]: ~1 cofilin-2 per actin
K0 (affinity for an isolated binding site, linear lattice model) [4]: 0.01 µM⁻¹
Ka [4]: 5.7e+06 M⁻¹
ω (cooperativity coefficient, linear lattice model) [4]: 50
K0 (affinity for an isolated binding site, linear lattice model) [5]: 0.17 µM⁻¹
Ka [5]: 6.3e+06 M⁻¹
ω (cooperativity coefficient, linear lattice model) [5]: 12
K0 (affinity for an isolated binding site, linear lattice model) [6]: 0.21 µM⁻¹
Ka [6]: 5.8e+06 M⁻¹
ω (cooperativity coefficient, linear lattice model) [6]: 10
cofilin-2/actin molar ratio at 50% dissociation of Tpm1.1 from F-actin [7]: 0.75 cofilin-2/actin
cofilin-2/actin molar ratio at 50% dissociation of Tpm3.12 from F-actin [7]: 0.71 cofilin-2/actin
B1: mouse cofilin-2, recombinant, GST tag removed (natural protein)
chain: MASGVTVNDEVIKVFNDMKVRKSSTQEEIKKRKKAVLFCLSDDKRQIIVEEAKQILVGDIGDTVEDPYTSFVKLLPLNDCRYALYDATYETKESKKEDLVFIFWAPESAPLKSKMIYASSKDAIKKKFTGIKHEWQVNGLDDIKDRSTLGEKLGGSVVVSLEGKPL
notes: cofilin-2 (muscle isoform of cofilin), mouse cDNA; MW 18,500 Da printed; The printed MW of 18,500 Da fits the whole protein
